Assay results: IntAct's records for PubMed 14660673

B1: F-box protein MET30 (Saccharomyces cerevisiae), P39014 (parent)
chain: MRRERQRMMSFEDKDKDDLDNSNSNNSSEMTDTAMMPPLKRLLITGSSDDLAQGSSGKKKMTMATRSPSSSPDLATNDSGTRVQPLPEYNFTKFCYRHNPDIQFSPTHTACYKQDLKRTQEINANIAKLPLQEQSDIHHIISKYSNSNDKIRKLILDGILSTSCFPQLSYISSLVTHMIKIDFISILPQELSLKILSYLDCQSLCNATRVCRKWQKLADDDRVWYHMCEQHIDRKCPNCGWGLPLLHMKRARIQQNSTGSSSNADIQTQTTRPWKVIYRERFKVESNWRKGHCRIQEFKGHMDGVLTLQFNYRLLFTGSYDSTIGIWDLFTGKLIRRLSGHSDGVKTLYFDDRKLITGSLDKTIRVWNYITGECISTYRGHSDSVLSVDSYQKVIVSGSADKTVKVWHVESRTCYTLRGHTEWVNCVKLHPKSFSCFSCSDDTTIRMWDIRTNSCLKVFRGHVGQVQKIIPLTIKDVENLATDNTSDGSSPQDDPTMTDGADESDTPSNEQETVLDENIPYPTHLLSCGLDNTIKLWDVKTGKCIRTQFGHVEGVWDIAADNFRIISGSHDGSIKVWDLQSGKCMHTFNGRRLQRETQHTQTQSLGDKVAPIACVCIGDSECFSGDEFGCVKMYKFDLND

Variants of: B1
Details: with skp1_yeast SKP1, P52286
Sequence of skp1_yeast SKP1, P52286 (P52286 whole entry): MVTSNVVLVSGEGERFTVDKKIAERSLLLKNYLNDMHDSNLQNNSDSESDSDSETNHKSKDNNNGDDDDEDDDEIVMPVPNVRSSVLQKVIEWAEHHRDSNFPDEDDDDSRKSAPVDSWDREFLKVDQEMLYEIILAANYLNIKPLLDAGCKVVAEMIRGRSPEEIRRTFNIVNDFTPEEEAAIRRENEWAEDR

Variant | effect of a mutation on the interaction
P188S | disrupting interaction strength
P188L | disrupting interaction strength
S169P | disrupting interaction strength
Q167R | disrupting interaction strength
S163N | disrupting interaction strength
C211Y | disrupting interaction strength

Variants of: B1
Details: with skp1_yeast SKP1, P52286
Remark: another data set of the same source

Variant | effect of a mutation on the interaction
L187D;E190A | decreasing interaction
